The text below walks through data of publication PMC8464030.

The target of series [1] is T1, DRH-3 full length (Caenorhabditis elegans, UniProt Q93413 1-1119).
T1 sequence: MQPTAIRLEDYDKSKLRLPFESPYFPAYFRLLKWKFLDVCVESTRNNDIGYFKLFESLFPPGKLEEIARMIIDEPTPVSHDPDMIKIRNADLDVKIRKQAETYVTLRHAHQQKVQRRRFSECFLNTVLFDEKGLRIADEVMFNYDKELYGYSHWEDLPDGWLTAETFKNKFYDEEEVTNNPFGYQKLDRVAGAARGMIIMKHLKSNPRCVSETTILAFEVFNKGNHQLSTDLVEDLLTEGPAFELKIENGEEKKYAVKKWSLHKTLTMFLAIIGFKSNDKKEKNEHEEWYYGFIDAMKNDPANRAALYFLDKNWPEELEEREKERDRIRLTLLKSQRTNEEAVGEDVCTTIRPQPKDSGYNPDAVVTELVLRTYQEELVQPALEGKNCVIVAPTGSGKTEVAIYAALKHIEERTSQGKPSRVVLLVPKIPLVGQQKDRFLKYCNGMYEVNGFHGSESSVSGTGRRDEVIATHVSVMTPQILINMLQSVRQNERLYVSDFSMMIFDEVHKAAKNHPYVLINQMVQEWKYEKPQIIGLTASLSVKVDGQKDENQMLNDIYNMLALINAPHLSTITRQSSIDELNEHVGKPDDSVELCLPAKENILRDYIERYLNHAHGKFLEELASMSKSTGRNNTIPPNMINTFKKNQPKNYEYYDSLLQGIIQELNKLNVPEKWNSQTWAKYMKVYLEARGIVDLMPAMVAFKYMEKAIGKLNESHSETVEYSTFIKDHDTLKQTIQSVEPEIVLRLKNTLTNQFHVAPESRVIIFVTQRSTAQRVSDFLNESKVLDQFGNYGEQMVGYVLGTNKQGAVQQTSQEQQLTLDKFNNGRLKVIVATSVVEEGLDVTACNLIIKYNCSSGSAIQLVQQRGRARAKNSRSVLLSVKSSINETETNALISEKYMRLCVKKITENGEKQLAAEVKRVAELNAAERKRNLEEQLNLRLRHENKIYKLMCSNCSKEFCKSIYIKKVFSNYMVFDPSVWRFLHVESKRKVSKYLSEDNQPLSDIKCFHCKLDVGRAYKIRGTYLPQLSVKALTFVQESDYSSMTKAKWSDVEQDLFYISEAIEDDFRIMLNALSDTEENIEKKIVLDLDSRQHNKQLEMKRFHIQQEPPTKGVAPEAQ
Nature of the series: HDX-MS.

Series [2] addresses T2, DRH-3 CTD (Caenorhabditis elegans, UniProt Q93413 940-1108).
T2 sequence: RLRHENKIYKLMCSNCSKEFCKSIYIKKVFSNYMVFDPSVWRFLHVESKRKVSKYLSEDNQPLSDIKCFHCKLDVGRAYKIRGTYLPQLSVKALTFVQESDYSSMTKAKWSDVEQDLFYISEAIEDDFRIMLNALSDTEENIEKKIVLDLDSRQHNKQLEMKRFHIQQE
The series can be described thus: crystal structure.

In series [3] the target is T3, RIG-I CTD (human, UniProt O95786 802-925).
T3 sequence: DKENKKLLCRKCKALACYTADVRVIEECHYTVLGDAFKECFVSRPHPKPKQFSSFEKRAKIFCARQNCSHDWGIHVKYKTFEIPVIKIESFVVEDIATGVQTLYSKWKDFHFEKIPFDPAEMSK
Nature of the series: limited proteolysis.

Series [4] addresses T4, DRH-1 CTD (Caenorhabditis elegans, UniProt G5EDI8 877-1006).
T4 sequence: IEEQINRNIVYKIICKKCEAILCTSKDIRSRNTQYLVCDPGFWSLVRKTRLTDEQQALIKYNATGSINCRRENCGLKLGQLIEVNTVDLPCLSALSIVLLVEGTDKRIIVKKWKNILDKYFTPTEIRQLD
Nature of the series: limited proteolysis.

Series [5] addresses T1, DRH-3 full length. The series can be described thus: size-exclusion chromatography.
Series [6] deals with T1, DRH-3 full length. Nature of the series: size-exclusion chromatography. This is another data set of the same source. For orientation: Size exclusion chromatography separates by hydrodynamic size, large species first.

On to GGACGUACGUUUCGACGUACGUCC (structured_RNA, 5'-triphosphate) [3p10L (SLR10)], for which the binding result in series [1] is recorded as “binds”.

Turning to GGCCGCCC (ssRNA, 5'-triphosphate) [8-nt ssRNA], in series [2], the binding result is reported as “binds”.

B1: R1 / 12-mer 5'-ppp dsRNA (dsRNA)
RNA 1: GGCGCGCGCGCC
RNA 2: GGCGCGCGCGCC
modifications: 5'-triphosphate on both strands
Consider B1, for which the binding result in series [3], in series [4] and in series [2] was “binds” throughout.

B2: GC30 (30-bp dsRNA) (dsRNA)
RNA 1: GGCGCGCGCGCGCGCGCGCGCGCGCGCGCGCC
RNA 2: GGCGCGCGCGCGCGCGCGCGCGCGCGCGCGCC
modifications: 5'-triphosphate on both strands
For the molecule B2, the binding result in series [5] was “binds”.

B3: Hairpin 30 (structured_RNA)
RNA: GGACGUACGUACGUGCACGUACGUACGUGCUUCGGCACGUACGUACGUGCACGUACGUACGUCC
modifications: 5'-triphosphate
For the molecule B3, the binding result in series [6] is “binds”.
